# Assay results reported in PMC10591475.
# Biological target: protein fusion 1, SpyCatcher03 fused to supercharged green fluorescent protein, conjugated with polymer surfactant ([SC3-scGFP][S])
# Experiment: SDS-PAGE of covalent (isopeptide) SpyCatcher-SpyTag coupling; 10 uM of each protein mixed in 20 mM Tris-HCl, 700 mM NaCl, pH 7.5, 37 °C, monitored over 24 h, in triplicate; product estimated from the pixel intensity of the bands (GelAnalyzer)
Substance,percent of coupling product formed after 15 s [%],yield of coupling product after 24 h [%]
"protein fusion 2, fibronectin-binding protein CshA fused to mCherry with SpyTag03 on the C-terminus (CshA-mCh-ST3)",40,80
"protein fusion 3, mCherry fused to SpyTag03 (mCh-ST3)",60,60
